13 molecules from patent US12630600B2 (MEDIMMUNE LIMITED, priority 2022, dated 2026) can be followed below.

Test [1] deals with human GLP-1 receptor (human, UniProt P43220). Briefly: cell-based or functional assay.
For test [2], the target named is human glucagon receptor (human, UniProt P47871). The test can be described thus: cell-based or functional assay.

Starred links: 1 amine or outer side, 2 acyl side, 3 side chain; linkers in the order of their positions; H or OH if unused. Non-standard residues stand in square brackets, D forms with d. Groups on a side chain read outwards from the residue. No end group written: not given here. *: point of attachment. β‑dimethylGln = β-dimethylglutamine, CC(C)(CC(N)=O)[C@H](N[*:1])C(=O)[*:2]; C20 diacid = O=C(O)CCCCCCCCCCCCCCCCCCC(=O)*; C18 diacid = O=C(O)CCCCCCCCCCCCCCCCC(=O)*; γGlu = O=C(O)[C@H](CCC(=O)[*:2])N[*:1]; αMeF = C[C@](N)(Cc1ccccc1)C(=O)O; NMeQ = CN[C@@H](CCC(N)=O)C(=O)O; AEEA = NCCOCCOCC(=O)O; Aib = CC(C)(N)C(=O)O

B1: Peptide 324 (peptide)
peptide: HS[β‑dimethylGln]GS[αMeF]TSDVSK[αMeF]LDSRAAK([AEEA-AEEA-γGlu-C18 diacid])D[αMeF]VQ[Aib]IANT-NH2
modifications: N-terminus assumed
SMILES: CC[C@H](C)[C@H](NC(=O)C(C)(C)NC(=O)[C@H](CCC(N)=O)NC(=O)[C@@H](NC(=O)[C@](C)(Cc1ccccc1)NC(=O)[C@H](CC(=O)O)NC(=O)[C@H](CCCCNC(=O)COCCOCCNC(=O)COCCOCCNC(=O)CC[C@H](NC(=O)CCCCCCCCCCCCCCCCC(=O)O)C(=O)O)NC(=O)[C@H](C)NC(=O)[C@H](C)NC(=O)[C@H](CCCNC(=N)N)NC(=O)[C@H](CO)NC(=O)[C@H](CC(=O)O)NC(=O)[C@H](CC(C)C)NC(=O)[C@](C)(Cc1ccccc1)NC(=O)[C@H](CCCCN)NC(=O)[C@H](CO)NC(=O)[C@@H](NC(=O)[C@H](CC(=O)O)NC(=O)[C@H](CO)NC(=O)[C@@H](NC(=O)[C@](C)(Cc1ccccc1)NC(=O)[C@H](CO)NC(=O)CNC(=O)[C@@H](NC(=O)[C@H](CO)NC(=O)[C@@H](N)Cc1c[nH]cn1)C(C)(C)CC(N)=O)[C@@H](C)O)C(C)C)C(C)C)C(=O)N[C@@H](C)C(=O)N[C@@H](CC(N)=O)C(=O)N[C@H](C(N)=O)[C@@H](C)O
For B1, in test [1], the “hGLP-1R EC50 (pM)” value was determined as 1330 pM. For the same molecule, in test [2], the “hGluc-R EC50 (pM)” value was determined as 1930 pM.
For H[dS]QGS[αMeF]TSDVSK[αMeF]LDSRAAK([AEEA-AEEA-γGlu-C18 diacid])D[αMeF]VQ[Aib]IANT [Peptide 331], in test [1], the “hGLP-1R EC50 (pM)” value came out at 62.6 pM. For the same molecule, the “hGluc-R EC50 (pM)” value in test [2] was 66.6 pM.
H[Aib]QGTFTSDVSK[αMeF]LDSRAAK([AEEA-AEEA-γGlu-C18 diacid])DFVQ[Aib]LVAT-NH2 (not fully specified) [Peptide 315]: the “hGLP-1R EC50 (pM)” value in test [1] was found to be 18.1 pM. Besides, the “hGluc-R EC50 (pM)” value in test [2] was found to be 5850 pM.

B2: Peptide 339 (peptide)
peptide: H[Aib]QGTFTSDYSK[αMeF]LD[αMeF]RRAK([γGlu-C18 diacid])DFVQWLL[Aib]T-OH
modifications: N-terminus assumed
SMILES: CC(C)C[C@H](NC(=O)[C@H](Cc1c[nH]c2ccccc12)NC(=O)[C@H](CCC(N)=O)NC(=O)[C@@H](NC(=O)[C@H](Cc1ccccc1)NC(=O)[C@H](CC(=O)O)NC(=O)[C@H](CCCCNC(=O)CC[C@H](NC(=O)CCCCCCCCCCCCCCCCC(=O)O)C(=O)O)NC(=O)[C@H](C)NC(=O)[C@H](CCCNC(=N)N)NC(=O)[C@H](CCCNC(=N)N)NC(=O)[C@](C)(Cc1ccccc1)NC(=O)[C@H](CC(=O)O)NC(=O)[C@H](CC(C)C)NC(=O)[C@](C)(Cc1ccccc1)NC(=O)[C@H](CCCCN)NC(=O)[C@H](CO)NC(=O)[C@H](Cc1ccc(O)cc1)NC(=O)[C@H](CC(=O)O)NC(=O)[C@H](CO)NC(=O)[C@@H](NC(=O)[C@H](Cc1ccccc1)NC(=O)[C@@H](NC(=O)CNC(=O)[C@H](CCC(N)=O)NC(=O)C(C)(C)NC(=O)[C@@H](N)Cc1c[nH]cn1)[C@@H](C)O)[C@@H](C)O)C(C)C)C(=O)N[C@@H](CC(C)C)C(=O)NC(C)(C)C(=O)N[C@H](C(=O)O)[C@@H](C)O
On to B2, for which, in test [1], the “hGLP-1R EC50 (pM)” value was found to be 312 pM. In addition, the “hGluc-R EC50 (pM)” value in test [2] is 70.3 pM.
Regarding H[Aib]QGTFTSDVSK[αMeF]LDSRAAK([AEEA-AEEA-γGlu-C18 diacid])DFVQWIANT-NH2 (not fully specified) [Peptide 318], in test [1], the “hGLP-1R EC50 (pM)” value was 55.2 pM. Further, in test [2], the “hGluc-R EC50 (pM)” value was 12000 pM.
As for H[Aib]HGS[αMeF]TSDVSK[αMeF]LDSRAAK([AEEA-AEEA-γGlu-γGlu-C20 diacid])D[αMeF]VQ[Aib]IANT-OH [Peptide 304], the “hGLP-1R EC50 (pM)” value in test [1] turned out to be 239 pM. The “hGluc-R EC50 (pM)” value in test [2] amounted to 687 pM.

B3: Peptide 305 (peptide)
peptide: H[Aib]HGS[αMeF]TSDVSK[αMeF]LDSRAAK([AEEA-AEEA-γGlu-γGlu-C20 diacid])D[αMeF]VQ[Aib]IANT-NH2
modifications: N-terminus assumed
SMILES: CC[C@H](C)[C@H](NC(=O)C(C)(C)NC(=O)[C@H](CCC(N)=O)NC(=O)[C@@H](NC(=O)[C@](C)(Cc1ccccc1)NC(=O)[C@H](CC(=O)O)NC(=O)[C@H](CCCCNC(=O)COCCOCCNC(=O)COCCOCCNC(=O)CC[C@H](NC(=O)CC[C@H](NC(=O)CCCCCCCCCCCCCCCCCCC(=O)O)C(=O)O)C(=O)O)NC(=O)[C@H](C)NC(=O)[C@H](C)NC(=O)[C@H](CCCNC(=N)N)NC(=O)[C@H](CO)NC(=O)[C@H](CC(=O)O)NC(=O)[C@H](CC(C)C)NC(=O)[C@](C)(Cc1ccccc1)NC(=O)[C@H](CCCCN)NC(=O)[C@H](CO)NC(=O)[C@@H](NC(=O)[C@H](CC(=O)O)NC(=O)[C@H](CO)NC(=O)[C@@H](NC(=O)[C@](C)(Cc1ccccc1)NC(=O)[C@H](CO)NC(=O)CNC(=O)[C@H](Cc1c[nH]cn1)NC(=O)C(C)(C)NC(=O)[C@@H](N)Cc1c[nH]cn1)[C@@H](C)O)C(C)C)C(C)C)C(=O)N[C@@H](C)C(=O)N[C@@H](CC(N)=O)C(=O)N[C@H](C(N)=O)[C@@H](C)O
For the molecule B3, in test [1], the “hGLP-1R EC50 (pM)” value was found to be 211 pM. The “hGluc-R EC50 (pM)” value in test [2] amounted to 155 pM.
Turning to H[Aib]QGS[αMeF]TSDVSK[αMeF]LDSRAAKD[αMeF]VQ[Aib]IANT-NH2 (not fully specified (residue 20)) [Peptide 322], the “hGLP-1R EC50 (pM)” value in test [1] was determined as 68.3 pM. The “hGluc-R EC50 (pM)” value in test [2] was > 24700 pM.
On to H[Aib]HGS[αMeF]TSDVSK[αMeF]LDSRAAK([AEEA-AEEA-γGlu-γGlu-C20 diacid])D[αMeF]IA[Aib]IAET-NH2 [Peptide 302], for which the “hGLP-1R EC50 (pM)” value in test [1] amounted to 151 pM. For the same molecule, the “hGluc-R EC50 (pM)” value in test [2] turned out to be 271 pM.

B4: Peptide 325 (peptide)
peptide: HS[NMeQ]GS[αMeF]TSDVSK[αMeF]LDSRAAK([AEEA-AEEA-γGlu-C18 diacid])D[αMeF]VQ[Aib]IANT-NH2
modifications: N-terminus assumed
SMILES: CC[C@H](C)[C@H](NC(=O)C(C)(C)NC(=O)[C@H](CCC(N)=O)NC(=O)[C@@H](NC(=O)[C@](C)(Cc1ccccc1)NC(=O)[C@H](CC(=O)O)NC(=O)[C@H](CCCCNC(=O)COCCOCCNC(=O)COCCOCCNC(=O)CC[C@H](NC(=O)CCCCCCCCCCCCCCCCC(=O)O)C(=O)O)NC(=O)[C@H](C)NC(=O)[C@H](C)NC(=O)[C@H](CCCNC(=N)N)NC(=O)[C@H](CO)NC(=O)[C@H](CC(=O)O)NC(=O)[C@H](CC(C)C)NC(=O)[C@](C)(Cc1ccccc1)NC(=O)[C@H](CCCCN)NC(=O)[C@H](CO)NC(=O)[C@@H](NC(=O)[C@H](CC(=O)O)NC(=O)[C@H](CO)NC(=O)[C@@H](NC(=O)[C@](C)(Cc1ccccc1)NC(=O)[C@H](CO)NC(=O)CNC(=O)[C@H](CCC(N)=O)N(C)C(=O)[C@H](CO)NC(=O)[C@@H](N)Cc1c[nH]cn1)[C@@H](C)O)C(C)C)C(C)C)C(=O)N[C@@H](C)C(=O)N[C@@H](CC(N)=O)C(=O)N[C@H](C(N)=O)[C@@H](C)O
Take B4: in test [1], the “hGLP-1R EC50 (pM)” value stood at 929 pM. The “hGluc-R EC50 (pM)” value in test [2] is > 25500 pM.

B5: Peptide 300 (peptide)
peptide: H[Aib]HGS[αMeF]TSDVSK[αMeF]LDSRAAK([AEEA-AEEA-γGlu-C18 diacid])D[αMeF]VQ[Aib]IAET-NH2
modifications: N-terminus assumed
SMILES: CC[C@H](C)[C@H](NC(=O)C(C)(C)NC(=O)[C@H](CCC(N)=O)NC(=O)[C@@H](NC(=O)[C@](C)(Cc1ccccc1)NC(=O)[C@H](CC(=O)O)NC(=O)[C@H](CCCCNC(=O)COCCOCCNC(=O)COCCOCCNC(=O)CC[C@H](NC(=O)CCCCCCCCCCCCCCCCC(=O)O)C(=O)O)NC(=O)[C@H](C)NC(=O)[C@H](C)NC(=O)[C@H](CCCNC(=N)N)NC(=O)[C@H](CO)NC(=O)[C@H](CC(=O)O)NC(=O)[C@H](CC(C)C)NC(=O)[C@](C)(Cc1ccccc1)NC(=O)[C@H](CCCCN)NC(=O)[C@H](CO)NC(=O)[C@@H](NC(=O)[C@H](CC(=O)O)NC(=O)[C@H](CO)NC(=O)[C@@H](NC(=O)[C@](C)(Cc1ccccc1)NC(=O)[C@H](CO)NC(=O)CNC(=O)[C@H](Cc1c[nH]cn1)NC(=O)C(C)(C)NC(=O)[C@@H](N)Cc1c[nH]cn1)[C@@H](C)O)C(C)C)C(C)C)C(=O)N[C@@H](C)C(=O)N[C@@H](CCC(=O)O)C(=O)N[C@H](C(N)=O)[C@@H](C)O
Turning to B5, the “hGLP-1R EC50 (pM)” value in test [1] is 19.7 pM. The “hGluc-R EC50 (pM)” value in test [2] amounted to 18.4 pM.

B6: Peptide 298 (peptide)
peptide: H[Aib]HGS[αMeF]TSDVSR[αMeF]LDSRAAK([AEEA-AEEA-γGlu-γGlu-C20 diacid])D[αMeF]VQ[Aib]IANT-NH2
modifications: N-terminus assumed
SMILES: CC[C@H](C)[C@H](NC(=O)C(C)(C)NC(=O)[C@H](CCC(N)=O)NC(=O)[C@@H](NC(=O)[C@](C)(Cc1ccccc1)NC(=O)[C@H](CC(=O)O)NC(=O)[C@H](CCCCNC(=O)COCCOCCNC(=O)COCCOCCNC(=O)CC[C@H](NC(=O)CC[C@H](NC(=O)CCCCCCCCCCCCCCCCCCC(=O)O)C(=O)O)C(=O)O)NC(=O)[C@H](C)NC(=O)[C@H](C)NC(=O)[C@H](CCCNC(=N)N)NC(=O)[C@H](CO)NC(=O)[C@H](CC(=O)O)NC(=O)[C@H](CC(C)C)NC(=O)[C@](C)(Cc1ccccc1)NC(=O)[C@H](CCCNC(=N)N)NC(=O)[C@H](CO)NC(=O)[C@@H](NC(=O)[C@H](CC(=O)O)NC(=O)[C@H](CO)NC(=O)[C@@H](NC(=O)[C@](C)(Cc1ccccc1)NC(=O)[C@H](CO)NC(=O)CNC(=O)[C@H](Cc1c[nH]cn1)NC(=O)C(C)(C)NC(=O)[C@@H](N)Cc1c[nH]cn1)[C@@H](C)O)C(C)C)C(C)C)C(=O)N[C@@H](C)C(=O)N[C@@H](CC(N)=O)C(=O)N[C@H](C(N)=O)[C@@H](C)O
Take B6: in test [1], the “hGLP-1R EC50 (pM)” value came to 75.5 pM. For the same molecule, the “hGluc-R EC50 (pM)” value in test [2] came out at 573 pM.
Regarding H[Aib]QGT[αMeF]TSDVSK[αMeF]LDSRAAK([AEEA-AEEA-γGlu-C18 diacid])D[αMeF]VQ[Aib]IANT-NH2 (not fully specified) [Peptide 321], the “hGLP-1R EC50 (pM)” value in test [1] was 22.6 pM. Besides, in test [2], the “hGluc-R EC50 (pM)” value was 4400 pM.
